biological target: HLA-A*02:01 (Homo sapiens, UniProt P04439, D140Y/D185E/D98H/E176V/E277Q/G131W/G231S/I119V/I121R/I166T/I218V/L300P/L318F/N151K/N90K/P208A/P217A/Q86G/Q94H/R138H/R169H/T345S); test: MHC binding assay (UV-ligand exchange, β2m ELISA, peptide exchange yield); settings: binding of HLA-class I restricted peptides to HLA-A*02:01, UV-ligand exchange
Method in brief: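 Peptide-MHC complexes formed by UV-ligand exchange, cleaving a UV-sensitive placeholder peptide in favour of the test peptide. Exchange yield measured by ELISA: monomers diluted 100-fold onto streptavidin-coated plates, 1 h 37 °C, detected with 2 ug/ml HRP anti-β2m and TMB, absorbance at 450 nm.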

Peptide exchange (MHC class I binding score, peptide exchange yield) | Substance
“+++” (≥50 = +++) | 331 (KVDTVWVNV; listed as Homo sapiens) [compound 331]
“+++” (≥50 = +++) | 600 (ALAAPDIVPAL; listed as Homo sapiens) [compound 600]
“+++” (≥50 = +++) | 206 (VLQEGKLQKLAQL; listed as Homo sapiens) [compound 206]
“++” (≥20% = ++) | 128 (YLFDDPLSAV; listed as Homo sapiens) [compound 128]
“++” (≥20% = ++) | 408 (VLDDSIYLV; listed as Homo sapiens) [compound 408]
“++” (≥20% = ++) | 405 (ALYDVFLEV; listed as Homo sapiens) [compound 405]
“++++” (≥75% = ++++) | 237 (ALLEASGTLLL; listed as Homo sapiens) [compound 237]
“+++” (≥50 = +++) | 223 (ALLENIALYL; listed as Homo sapiens) [compound 223]
“+++” (≥50 = +++) | 175 (YLFENISQL; listed as Homo sapiens) [compound 175]
“+++” (≥50 = +++) | 42 (VLLQKIVSA; listed as Homo sapiens) [compound 42]
“++” (≥20% = ++) | 24 (SLSDGLEEV; listed as Homo sapiens) [compound 24]
“++” (≥20% = ++) | 277 (LLPPLESLATV; listed as Homo sapiens) [compound 277]
“+++” (≥50 = +++) | 110 (FLSQVDFEL; listed as Homo sapiens) [compound 110]
“++” (≥20% = ++) | 429 (GLVNDLARV; listed as Homo sapiens) [compound 429]
“+++” (≥50 = +++) | 589 (KLYPQLPAEI; listed as Homo sapiens) [compound 589]
“++” (≥20% = ++) | 392 (ALLHPQGFEV; listed as Homo sapiens) [compound 392]
“+++” (≥50 = +++) | 467 (FLAKDFNFL; listed as Homo sapiens) [compound 467]
“++” (≥20% = ++) | 80 (FLYDNLVESL; listed as Homo sapiens) [compound 80]
“+++” (≥50 = +++) | 107 (FLQPVDDTQHL; listed as Homo sapiens) [compound 107]
“+++” (≥50 = +++) | 558 (GLLENIPRV; listed as Homo sapiens) [compound 558]
“+++” (≥50 = +++) | 359 (YLLPESVDL; listed as Homo sapiens) [compound 359]
“+++” (≥50 = +++) | 267 (ALQDFLLSV; listed as Homo sapiens) [compound 267]

Peptide exchange (MHC class I binding score, peptide exchange yield) | Substance
“+++” (≥50 = +++) | 23 (VLLDDIFAQL; listed as Homo sapiens) [compound 23]
“++++” (≥75% = ++++) | 177 (YLLPEEYTSTL; listed as Homo sapiens) [compound 177]
“+++” (≥50 = +++) | 437 (SMAPGLVIQAV; listed as Homo sapiens) [compound 437]
“+++” (≥50 = +++) | 370 (SLLQDLVSV; listed as Homo sapiens) [compound 370]
“++” (≥20% = ++) | 510 (KLYSVVSQL; listed as Homo sapiens) [compound 510]
“++” (≥20% = ++) | 431 (SLVNVVPKL; listed as Homo sapiens) [compound 431]
“+++” (≥50 = +++) | 332 (YLISELEAA; listed as Homo sapiens) [compound 332]
“++” (≥20% = ++) | 63 (YLLPSGGSVTL; listed as Homo sapiens) [compound 63]
“+++” (≥50 = +++) | 550 (FLYDEIEAEVNL; listed as Homo sapiens) [compound 550]
“++” (≥20% = ++) | 363 (KVLDVSDLESV; listed as Homo sapiens) [compound 363]
“++” (≥20% = ++) | 461 (VMFRTPLASV; listed as Homo sapiens) [compound 461]
“+++” (≥50 = +++) | 240 (ILLEQAFYL; listed as Homo sapiens) [compound 240]
“++++” (≥75% = ++++) | 340 (ALLSMTFPL; listed as Homo sapiens) [compound 340]
“+++” (≥50 = +++) | 264 (SLQEQLHSV; listed as Homo sapiens) [compound 264]
“+++” (≥50 = +++) | 386 (ILFRYPLTI; listed as Homo sapiens) [compound 386]
“++” (≥20% = ++) | 220 (LLQKFVPEI; listed as Homo sapiens) [compound 220]
“++” (≥20% = ++) | 274 (SLLFSLFEA; listed as Homo sapiens) [compound 274]
“+++” (≥50 = +++) | 388 (SLTIDGIRYV; listed as Homo sapiens) [compound 388]
“+++” (≥50 = +++) | 578 (FLDPGGPMMKL; listed as Homo sapiens) [compound 578]
“++” (≥20% = ++) | 232 (ALLEAQDVELYL; listed as Homo sapiens) [compound 232]
“++” (≥20% = ++) | 211 (LLWPGAALL; listed as Homo sapiens) [compound 211]
“++” (≥20% = ++) | 172 (VLYSYTIITV; listed as Homo sapiens) [compound 172]

Peptide exchange (MHC class I binding score, peptide exchange yield) | Substance
“++” (≥20% = ++) | 197 (ALGPEGGRV; listed as Homo sapiens) [compound 197]
“+++” (≥50 = +++) | 606 (ALWETEVYI; listed as Homo sapiens) [compound 606]
“+++” (≥50 = +++) | 28 (QLLDETSAITL; listed as Homo sapiens) [compound 28]
“+++” (≥50 = +++) | 346 (LLDSKVPSV; listed as Homo sapiens) [compound 346]
“++” (≥20% = ++) | 131 (FVPPVTVFPSL; listed as Homo sapiens) [compound 131]
“+++” (≥50 = +++) | 619 (ALQDRVPLA; listed as Homo sapiens) [compound 619]
“+++” (≥50 = +++) | 138 (YQYPRAILSV; listed as Homo sapiens) [compound 138]
“++++” (≥75% = ++++) | 339 (GLWEIENNPTVKA; listed as Homo sapiens) [compound 339]
“+++” (≥50 = +++) | 187 (RQISIRGIVGV; listed as Homo sapiens) [compound 187]
“+++” (≥50 = +++) | 616 (VLIDEVESL; listed as Homo sapiens) [compound 616]
“+++” (≥50 = +++) | 95 (SVIPQIQKV; listed as Homo sapiens) [compound 95]
“++++” (≥75% = ++++) | 329 (FLVTLNNVEV; listed as Homo sapiens) [compound 329]
“+++” (≥50 = +++) | 151 (KILQQLVTL; listed as Homo sapiens) [compound 151]
“++” (≥20% = ++) | 218 (SALEELVNV; listed as Homo sapiens) [compound 218]
“++” (≥20% = ++) | 382 (ALQNYIKEA; listed as Homo sapiens) [compound 382]
“+++” (≥50 = +++) | 336 (ILLTAIVQV; listed as Homo sapiens) [compound 336]
“++++” (≥75% = ++++) | 303 (AILPQLFMV; listed as Homo sapiens) [compound 303]
“+” (≥10% = +) | 520 (LAVHPSGVAL; listed as Homo sapiens) [compound 520]
“+++” (≥50 = +++) | 537 (TLAPGEVLRSV; listed as Homo sapiens) [compound 537]
“+++” (≥50 = +++) | 327 (GLAPFTEGISFV; listed as Homo sapiens) [compound 327]
“+++” (≥50 = +++) | 304 (MTLGQIYYL; listed as Homo sapiens) [compound 304]
“+++” (≥50 = +++) | 587 (VMNDRLYAI; listed as Homo sapiens) [compound 587]
